Results from patent US20150258217A1, “Methods of Synthesizing and Using Peg-Like Fluorochromes” (THE GENERAL HOSPITAL CORPORATION, priority 2012, published 2015).

Legend:
[1] = PN and peptide size (volume, diameter) by FPLC gel filtration (Superdex 200, globular protein standards); format: physicochemical; details: for Volume FPLC (diameter) / Volume FPLC: Table 5; for Volume FPLC (diameter): converted from globular protein equivalent MW; for Volume FPLC: globular protein equivalent molecular weight
How it was run: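 Superdex 200 size exclusion in 0.05 M sodium phosphate, 0.15 M NaCl, 0.1% Tween, pH 7.2 at 0.8 ml/min, calibrated with globular protein standards via Kav. Apparent globular-equivalent molecular weight converted to diameter using radius (nm)=0.066M^1/3.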

[2] = Blood half-life from serum fluorescence after tail injection; format: in vivo; details: mouse, IV; single decay constant fit
Protocol: Using these procedures and PEG's of different molecular weights, PEG-like NIR fluorochromes of different molecular weights, volumes and pharmacokinetics were synthesized, with results summarized in Table 3B. Blood half-lives were determined by tail injection into mice and measuring serum fluorescence as a function of time. Data (fluorescence versus time) were fit to a single decay constant equation to yield blood half-lives. Human pharmacokinetics will be far slower than that of mice.

[3] = Whole animal surface fluorescence after IV injection (elimination); format: in vivo, mouse; details: bladder at 20 minutes, vs (DOTA)Lys-Cys(IR-783) peptide
Source text: (§1) A Kodak FX multispectral imaging system was used (Carestream Molecular Imaging, Rochester, N.Y.). Excitation at multiple wavelengths (620, 650, 690, 710, 720, 730, 750 and 760 nm) with the emission at 830 nm was setup for IR-783 spectrum; Excitation at multiple wavelengths (420, 440, 460, 480, 510, 520, 530, and 540 nm) with the emission at 600 nm was setup for Cy3 spectrum; Excitation at multiple wavelengths (450, 470, 510, 520, 530, 540, 550, 570, and 590 nm) with the emission at 700 nm was setup for mCherry; with manufacturer's software to separate (unmix) the IR-783 spectrum, Cy3 spectrum, or mCherry spectrum from skin autofluorescence and chlorophyll fluorescence from food. X-ray images were taken after fluorescence images. Animals were anesthetized with 2% isoflurane with O2 flow (2 I/min) during imaging.

HT-29 tumor = format: in vivo, mouse
Source text: as §1
Female nude mice (25-30 g; 6-8 weeks old; nu/nu) were anesthetized with 2% isoflurane/O2. HT-29 or mCherry-HT-29 cells were detached, pelleted and 200 μl of cell suspension containing 10^6 cells in Matrigel (BD Bioscience) was injected subcutaneously into right and left shoulders. Tumors were allowed to grow 5-7 days before experiments.
The imaging was performed by Triumph II multimodality imaging system (Gamma Medica Ideas, LLC) comprising XSPECT with four CZT (Cadmium Zink Telluride) detectors and X-O CT with CMOS detector. SPECT data of the ^111In-labeled compound was acquired for 60 minutes using 5-pinhole collimators and processed with 3D-OSEM algorithm using 4 subsets and 5 iterations. 3-dimensional CT data was processed with modified Feldkamp software. […] Animals were under isoflurane anesthesia (1.5%) with O2 flow (1.5 l/min) and kept warm during the imaging with a heated animal bed.
150 μl of ^111In-labeled PN(783)10 (400 μCi, ˜2 nmole) were injected to tumor-bearing animals by tail vein (IV). 24 hours or 48 hours later, animals were sacrificed, and tumors, blood, liver, spleen, stomach, kidneys, small intestine, lung, heart, tail, fat, and muscle, were collected. Radioactivity was measured with Perkin Elmer, Wizard2 2480 gamma counter.

[4] = mouse, in vivo
Protocol: At two hours post injection, agent is in the blood and interstitium. By 24 hours post injection, tumors are becoming apparent as agent is being cleared. At 48 hours, labeling is highly tumor selective. […] By surface fluorescence, as with SPECT, labeling is highly tumor selective at 48 hours. Biodistribution as organ radioactivity concentrations FIG. 26(c) and total organ radioactivity FIG. 26(d) were obtained by dissection and ^111In counting at 24 hours and 48 hours post injection. Even at 48 hours post injection some 7.5% of injected dose is in the blood, with less than 5% in liver, even though the diameter of PN(783)10.0 exceeds that of albumin (6.7 nm). Data are means and standard deviations. […] By 72 hours, some 17% of injected dose was retained, approximately half of which was still in the blood based on FIG. 26d.

Substance | PEG-based expansion of volume ([1]; 5 kDa PEG vs non-PEGylated peptide, (4.3/1.1)) [fold] | diameter ([1]; FPLC gel filtration) [nm] | Molecular Volume FPLC ([1]; Table 3B, dipeptides) [kDa] | Volume FPLC (diameter) [1] [nm] | Volume FPLC [1] [kDa] | Serum half-life [2] [min] | fluorochrome elimination after IV injection [3] | tumor retention (EPR) by SPECT and surface fluorescence (HT-29 tumor; HT29 tumor, 48 hours) | injected dose in the blood (HT-29 tumor; mouse, in vivo) [%] | injected dose in the liver (HT-29 tumor; mouse, in vivo) | injected dose retained (whole animal) [4] [%]
(DOTA)Lys(PEG5K)-Cys(IR-783) [PN(783)4.3] | 59 | 4.3 | 35.2 | 4.3 | 35.2 | 13.1 | enhanced fluorochrome elimination |  |  |  | 
(DOTA)Lys(PEG30K)-Cys(IR-783) [PN(783)10.0] |  |  |  | 10.0 | 435.4 |  |  | retained in the tumor | ~7.5 | less than 5% | ~17
